Experimental data as given in publication PMC2112702 (The Journal of Cell Biology, 1983).

Biological target: clathrin (Mr ~180,000 polypeptide) (bovine (calf brain), UniProt P49951 1-1675)
Assay: co-sedimentation

clathrin (Mr ~180,000 polypeptide), sequence (P49951 whole entry): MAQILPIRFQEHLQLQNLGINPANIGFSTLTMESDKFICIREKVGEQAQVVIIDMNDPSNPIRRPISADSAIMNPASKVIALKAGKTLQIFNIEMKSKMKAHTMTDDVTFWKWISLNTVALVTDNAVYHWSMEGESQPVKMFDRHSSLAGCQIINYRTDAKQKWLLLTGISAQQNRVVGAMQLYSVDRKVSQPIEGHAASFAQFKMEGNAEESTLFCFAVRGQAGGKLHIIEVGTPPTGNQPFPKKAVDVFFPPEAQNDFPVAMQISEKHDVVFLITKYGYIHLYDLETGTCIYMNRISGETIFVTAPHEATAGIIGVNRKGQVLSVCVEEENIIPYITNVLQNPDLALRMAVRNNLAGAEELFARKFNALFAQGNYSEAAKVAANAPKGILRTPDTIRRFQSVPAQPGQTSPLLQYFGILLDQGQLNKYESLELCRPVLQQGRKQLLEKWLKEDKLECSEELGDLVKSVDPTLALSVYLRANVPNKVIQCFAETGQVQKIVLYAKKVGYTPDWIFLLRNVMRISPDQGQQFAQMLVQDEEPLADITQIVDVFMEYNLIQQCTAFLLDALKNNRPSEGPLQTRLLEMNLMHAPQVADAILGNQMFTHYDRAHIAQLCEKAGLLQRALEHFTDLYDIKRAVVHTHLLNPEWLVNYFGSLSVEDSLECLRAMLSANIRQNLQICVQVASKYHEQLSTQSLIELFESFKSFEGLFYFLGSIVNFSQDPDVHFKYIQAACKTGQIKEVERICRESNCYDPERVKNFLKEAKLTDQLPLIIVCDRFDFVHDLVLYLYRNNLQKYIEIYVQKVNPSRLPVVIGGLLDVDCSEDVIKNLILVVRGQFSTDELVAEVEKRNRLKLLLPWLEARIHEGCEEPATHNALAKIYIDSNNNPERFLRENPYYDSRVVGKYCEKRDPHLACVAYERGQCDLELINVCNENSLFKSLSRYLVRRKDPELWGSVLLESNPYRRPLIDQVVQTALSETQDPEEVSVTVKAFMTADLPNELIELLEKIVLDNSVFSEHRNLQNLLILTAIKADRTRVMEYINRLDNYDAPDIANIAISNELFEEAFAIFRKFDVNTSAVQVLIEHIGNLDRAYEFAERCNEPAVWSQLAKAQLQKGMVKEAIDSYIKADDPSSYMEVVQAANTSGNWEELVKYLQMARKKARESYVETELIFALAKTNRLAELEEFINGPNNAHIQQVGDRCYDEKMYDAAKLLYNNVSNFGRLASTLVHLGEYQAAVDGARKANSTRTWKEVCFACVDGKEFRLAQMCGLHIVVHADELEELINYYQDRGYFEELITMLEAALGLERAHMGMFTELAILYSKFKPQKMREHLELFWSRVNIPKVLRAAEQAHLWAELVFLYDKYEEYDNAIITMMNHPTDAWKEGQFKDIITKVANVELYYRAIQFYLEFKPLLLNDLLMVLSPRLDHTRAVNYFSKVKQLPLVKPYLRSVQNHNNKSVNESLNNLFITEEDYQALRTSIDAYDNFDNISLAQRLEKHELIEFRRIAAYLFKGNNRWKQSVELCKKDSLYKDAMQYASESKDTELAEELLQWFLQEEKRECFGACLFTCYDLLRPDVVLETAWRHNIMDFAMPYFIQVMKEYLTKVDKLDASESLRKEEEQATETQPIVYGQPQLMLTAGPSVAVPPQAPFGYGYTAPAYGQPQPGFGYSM

Row | stoichiometry N | Binder
1 | 1.62 mol per 3.00 mol of 180,000 clathrin (one triskelion) | clathrin light chain, Mr 33,000 (natural protein, bovine (calf brain), UniProt P04975 1-228, looked up) MADDFGFFSSSESGAPEAAEEDPAAAFLAQQESEIAGIENDEGFGAPAGSQGGLAQPGPASGASEDMGATVNGDVFQEANGPADGYAAIAQADRLTQEPESIRKWREEQRKRLQELDAASKVMEQEWREKAKKDLEEWNQRQSEQVEKNKINNRIADKAFYQQPDADIIGYVASEEAFVKESKEETPGTEWEKVAQLCDFNPKSSKQCKDVSRLRSVLMSLKQTPLSR
2 | 0.83 mol per 3.00 mol of 180,000 clathrin (one triskelion) | clathrin light chain, Mr 36,000 (natural protein, bovine (calf brain), UniProt P04973 1-243, looked up) MAELDPFGVPAGGPALGNGVAGEEDPAAAFLAQQESEIAGIENDEAFAILDGGAPGSQPHGEPPGIPDAVDGVTNGDYYQESNGPTDSYAAISQVDRLQSEPESIRKWREEQTERLEALDANSRKQEAEWKEKAIKELDEWYARQDEQLQKTKANNRVADEAFYKQPFADVIGYVTNINHPCYSLEQAAEEAFVNDIEESSPGTEWERVARLCDFNPKSSKQAKDVSRMRSVLISLKQAPLVH
